The values that follow come from patent US20210277098A1 (MITSUBISHI TANABE PHARMA, published 2021).

No end group written: not given here. *: point of attachment. Biotin = O=C1N[C@H]2[C@H](CS[C@H]2CCCCC(=O)*)N1

The target of experiment [1] is T1, mouse RGMa protein (R&D systems, 2458-RG) (mouse) (UniProt Q6PCX7).
T1 sequence: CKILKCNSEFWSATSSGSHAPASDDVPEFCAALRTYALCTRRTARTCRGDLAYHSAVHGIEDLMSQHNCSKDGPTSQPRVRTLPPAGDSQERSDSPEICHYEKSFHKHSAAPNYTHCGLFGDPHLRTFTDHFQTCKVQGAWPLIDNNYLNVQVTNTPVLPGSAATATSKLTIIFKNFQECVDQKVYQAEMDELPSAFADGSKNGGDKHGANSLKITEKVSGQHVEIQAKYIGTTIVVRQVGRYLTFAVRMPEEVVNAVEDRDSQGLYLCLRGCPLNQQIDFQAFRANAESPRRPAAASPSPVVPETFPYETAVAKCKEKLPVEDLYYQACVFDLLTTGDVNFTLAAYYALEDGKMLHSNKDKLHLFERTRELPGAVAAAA
In words: SPR (Proteon XPR36), antigen amine-coupled on a GLC chip, antibody as analyte.

The target of experiment [2] is Human RGMa protein (R&D systems, 2459-RM) (human) (UniProt Q96B86). The description is as above.
In experiment [3] the target is T1, mouse RGMa protein (R&D systems, 2458-RG) (mouse). In words: SPR (Proteon XPR36), ratio of Kd values against r5F9.
The target in experiment [4] is T2, C-terminal domain of human RGMa protein (prepared in Example 1), Pro 169 to Gly 422 with C-terminal histidine … (human, UniProt Q96B86 169-422).
T2 construct: Secreted from CHO cells and purified on a nickel column; also called Human RGMa C-terminal domain; recombinant human RGMa protein; not shown: histidine tag at the C terminus
T2 sequence: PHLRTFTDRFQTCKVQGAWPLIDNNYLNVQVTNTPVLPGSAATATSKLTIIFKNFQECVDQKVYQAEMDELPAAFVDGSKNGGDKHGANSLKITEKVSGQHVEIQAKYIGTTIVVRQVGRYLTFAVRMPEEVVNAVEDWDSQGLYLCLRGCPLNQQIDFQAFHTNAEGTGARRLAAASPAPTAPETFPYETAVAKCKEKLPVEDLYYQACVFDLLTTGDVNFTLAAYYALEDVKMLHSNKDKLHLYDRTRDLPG
Nature of the experiment: SPR (Proteon XPR36), antigen amine-coupled on a GLC chip, antibody as analyte. The method, then: (§1) The affinity of the test antibodies (r116A3 and r70E4) and r5F9 (Comparative Example) for RGMa protein were measured by the surface plasmon resonance (SPR) method using Proteon XPR36 (Bio-Rad).
(§2) Human RGMa protein (R&D Systems, 2459-RM), the C-terminal domain of human RGMa protein (prepared in Example 1) or mouse RGMa protein (R&D Systems, 2458-RG) diluted to 10 μg/mL with 10 mM acetate buffer (pH4.5) was immobilized on a GLC sensor chip by amine coupling method.

For experiment [5], the target named is T3, Human RGMa protein (R&D systems, 2459-RM) (human, UniProt Q96B86 48-422, limits assumed).
T3 construct: Bought protein; also called Recombinant RGMa protein
T3 sequence: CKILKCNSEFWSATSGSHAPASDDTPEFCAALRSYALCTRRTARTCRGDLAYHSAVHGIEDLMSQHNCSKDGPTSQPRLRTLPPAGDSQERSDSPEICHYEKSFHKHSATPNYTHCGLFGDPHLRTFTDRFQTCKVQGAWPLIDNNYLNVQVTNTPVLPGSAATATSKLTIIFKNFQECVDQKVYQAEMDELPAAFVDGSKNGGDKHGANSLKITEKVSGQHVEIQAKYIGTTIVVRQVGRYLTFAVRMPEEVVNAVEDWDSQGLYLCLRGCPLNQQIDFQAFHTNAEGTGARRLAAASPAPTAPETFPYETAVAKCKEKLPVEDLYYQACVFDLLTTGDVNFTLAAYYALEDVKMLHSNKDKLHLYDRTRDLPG
The experiment is described as above. The method, then: as §1, §2

In experiment [6] the target is T4, biotinylated SGSG-spacer peptide of human RGMa Val 301 to Gly 311 (human).
T4 construct: One of 83 peptides of 11 residues, immobilised on avidin-coated plates
T4 peptide: Biotin-SGSGVNAVEDWDSQG
In words: peptide scanning ELISA, biotinylated peptides on avidin-coated plates. The method, then:
(§3) Epitopes to which the antibodies bind were determined by the peptide scanning method. A total of 83 kinds of peptides were synthesized by fusing the N-terminal side of the amino acid sequences consisting of 11 consecutive residues shifted by 3 residues contained in Arg 172 to Ala 424 of the human RGMa protein (SEQ ID NO: 1 in Sequence Listing) with a spacer sequence (SGSG) with biotinylated N terminus (SEQ ID NO: 46 in Sequence Listing). After immobilizing the peptides on avidin-coated plates, the test antibodies (B5.116A3 and B5.70E4) were allowed to react. Subsequently, a peroxidase-labeled rabbit anti-mouse Ig antibody (Dako, P026002) was allowed to react. After a substrate solution was added and color developed for a certain time, the absorbance was measured with a plate reader.
In general terms: In an ELISA, binding on a coated surface is turned into a signal by an enzyme label.

Experiment [7] deals with T5, biotinylated SGSG-spacer peptide of human RGMa Asn 322 to Thr 332 (human).
T5 construct: One of 83 peptides of 11 residues, immobilised on avidin-coated plates
T5 peptide: Biotin-SGSGNQQIDFQAFHT
The description is as above. The method, then:
as §3

Experiment [8] has as its target T6, biotinylated SGSG-spacer peptide of human RGMa Ile 325 to Glu 335 (human).
T6 construct: One of 83 peptides of 11 residues, immobilised on avidin-coated plates
T6 peptide: Biotin-SGSGIDFQAFHTNAE
The experiment is described as above. The method, then:
as §3

The target of experiment [9] is T7, biotinylated SGSG-spacer peptide of human RGMa Lys 367 to Ala 377 (human).
T7 construct: One of 83 peptides of 11 residues, immobilised on avidin-coated plates
T7 peptide: Biotin-SGSGKLPVEDLYYQA
The experiment is described as above. The method, then: as §3

Experiment [10] has as its target T8, biotinylated SGSG-spacer peptide of human RGMa Glu 298 to Asp 308 (human).
T8 construct: One of 83 peptides of 11 residues, immobilised on avidin-coated plates
T8 peptide: Biotin-SGSGEEVVNAVEDWD
The experiment is described as above. The method, then: as §3

A word on the Kd: it is the concentration at which binding is half-saturated. Read a low Kd as a tighter complex. As to “recombinant rat mouse chimeric antibody r5F9 (Comparative Example)”, the Kd was found to be 8.98 nM in [1] and 1.59 nM in experiment [2].

B1: recombinant mouse antibody r116A3 (antibody, mouse IgG2b, kappa, V domains shown)
VH: EVKLEESGGGLVQPGGSMKLSCAASGFTFSDAWMDWVRQSPEKGLEWVAEIRSKANNHATYYAESVKGRFTISRDDSKRSVYLQMNNLRAEDTGIYYCTRRDGAYWGQGTLVTVSA
VL: DIQMTQTTSSLSASLGDRVTISCRASQDISSYLNWYQQKPDGTVKLLIYYTSRLHSGVPSRFSGSGSGTDYSLTISNLEQEDIATYFCQQLNTLPWTFGGGTKLEIKR
notes: Recombinant form of B5.116A3 expressed in HEK293F cells
With B1, in experiment [3], the times stronger binding than r5F9 was 44 times. The values for the dissociation constant (Kd) in experiment [1], in experiment [4] and in experiment [5] were 0.201 nM, 0.0568 nM and 0.0487 nM, respectively.

B2: mouse anti-human RGMa monoclonal antibody B5.116A3 (antibody, mouse IgG2b, kappa, V domains shown)
VH: EVKLEESGGGLVQPGGSMKLSCAASGFTFSDAWMDWVRQSPEKGLEWVAEIRSKANNHATYYAESVKGRFTISRDDSKRSVYLQMNNLRAEDTGIYYCTRRDGAYWGQGTLVTVSA
VL: DIQMTQTTSSLSASLGDRVTISCRASQDISSYLNWYQQKPDGTVKLLIYYTSRLHSGVPSRFSGSGSGTDYSLTISNLEQEDIATYFCQQLNTLPWTFGGGTKLEIKR
For B2, the binding result in [6], in experiment [7], in experiment [8], in experiment [9] and in [10] was “binds” each time.

B3: recombinant mouse antibody r70E4 (antibody, mouse IgG2b, kappa, V domains shown)
VH: DVKLQESGPGLVKPSQSLSLTCSVTGYSITTSYYWNWIRQFPGNKLEWMGYISYDGTNNYNPSLKNRISITRDTSKNQFFLRLNSVTTEDTATYYCAGSFGYSQGTLVTVSA
VL: DVVMTQTPLSLPVSLGDQASISCRSSQSLVHSNGNTYLHWYLQRPGQSPKLLIYKVSNRFSGVPDRFSGSGSGTDFTLKISRVEAEDLGLYFCSQSTHVPYTFGGGTKLEIKR
notes: Recombinant form of B5.70E4 expressed in HEK293F cells
For B3, the dissociation constant Kd in [1] was 174 nM; in experiment [4], 1.12 nM; in experiment [5], 2.43 nM.
